Measurements taken from PMC3299734, “In Vivo Depletion of Lymphotoxin-Alpha Expressing Lymphocytes Inhibits Xenogeneic Graft-versus-Host-Disease” (PLoS ONE, 2012).

B1: TNFRII.Ig (TNFRII IgG fusion protein) (Fc fusion, human, UniProt P20333 23-257, looked up)
chain: LPAQVAFTPYAPEPGSTCRLREYYDQTAQMCCSKCSPGQHAKVFCTKTSDTVCDSCEDSTYTQLWNWVPECLSCGSRCSSDQVETQACTREQNRICTCRPGWYCALSKQEGCRLCAPLRKCRPGFGVARPGTETSDVVCKPCAPGTFSNTTSSTDICRPHQICNVVAIPGNASMDAVCTSTSPTRSMAPGAVHLPQPVSTRSQHTQPTPEPSTAPSTSFLLPMGPSPPAEGSTGD
modifications: labeled with SULFO-TAG NHS-ester as the detecting copy in the competitive blocking ELISA
notes: TNF receptor II (TNFRSF1B), human, fused to Ig; detected with anti-human Fc); also called TNFRII.Fc
B2: human LT-α3 (soluble lymphotoxin-α homotrimer) (ligand, UniProt P01374 35-205, looked up)
chain: LPGVGLTPSAAQTARQHPKMHLAHSTLKPAAHLIGDPSKQNSLLWRANTDRAFLQDGFSLSNNSLLVPTSGIYFVYSQVVFSGKAYSPKATSSPLYLAHEVQLFSSQYPFHVPLLSSQKMVYPGLQEPWLHSMYHGAAFQLTQGDQLSTHTDGIPHLVLSPSTVFFGAFAL
modifications: labeled with biotin in the competitive blocking ELISA only
notes: lymphotoxin-alpha, human, recombinant soluble homotrimer; also called recombinant LT-α3; soluble LT-α

Columns and labels:
[1] = molecular target: human LT-α1β2 (lymphotoxin-α/lymphotoxin-β heterotrimer) (human) (UniProt P01374); experiment: ELISA; competitive blocking ELISA (Meso Scale Discovery read-out): test molecule serially diluted, incubated 2 hr with biotinylated LT-α3 or LT-α1β2, captured on streptavidin plates 30 min, then SULFO-TAG TNFRII.Ig or LT-βR.Ig added 30 min
[2] = molecular target: human LT-α1β2 (lymphotoxin-α/lymphotoxin-β heterotrimer) (human) (UniProt P01374); experiment: ELISA; wells coated overnight with 0.5-1 µg/ml human LT-α1β2 or LT-α3, blocked with PBS with 5 mg/ml BSA; LT-βR or TNFRII IgG fusion proteins added; detected with HRP goat F(ab')2 anti-human Fc and tetramethylbenzidine; EC50 by 4-parameter fit
[3] = molecular target: B2; experiment: ELISA; competitive blocking ELISA (Meso Scale Discovery read-out): test molecule serially diluted, incubated 2 hr with biotinylated LT-α3 or LT-α1β2, captured on streptavidin plates 30 min, then SULFO-TAG TNFRII.Ig or LT-βR.Ig added 30 min; settings: both partners purified
[4] = molecular target: B2; experiment: ELISA; wells coated overnight with 0.5-1 µg/ml human LT-α1β2 or LT-α3, blocked with PBS with 5 mg/ml BSA; LT-βR or TNFRII IgG fusion proteins added; detected with HRP goat F(ab')2 anti-human Fc and tetramethylbenzidine; EC50 by 4-parameter fit; settings: both partners purified
[5] = molecular target: B1; experiment: ELISA; competitive blocking ELISA (Meso Scale Discovery read-out): test molecule serially diluted, incubated 2 hr with biotinylated LT-α3 or LT-α1β2, captured on streptavidin plates 30 min, then SULFO-TAG TNFRII.Ig or LT-βR.Ig added 30 min; settings: both partners purified

**Q.** With “Human LT-βR.Ig (LT-βR IgG fusion protein) (from UniProt P36941 31-227) (Fc fusion)” as the molecule, how does the IC50 [1] read?
**A.** Its IC50 is 100 pM.

**Q.** And the EC50 [2]?
**A.** Its EC50 is 48 pM.

**Q.** B1 was tested. Which IC50 [3] did it give?
**A.** The IC50 was 830 pM.

**Q.** What about the EC50 [4] of the same molecule?
**A.** The EC50 was 133 pM.

**Q.** Does B2 bind [5]?
**A.** Result: binds
